# PMC5983932 (Oncology Reports, 2018)
# T1: GST-ER-α66 fusion protein (UniProt P03372 1-595)
# T1 sequence (looked up): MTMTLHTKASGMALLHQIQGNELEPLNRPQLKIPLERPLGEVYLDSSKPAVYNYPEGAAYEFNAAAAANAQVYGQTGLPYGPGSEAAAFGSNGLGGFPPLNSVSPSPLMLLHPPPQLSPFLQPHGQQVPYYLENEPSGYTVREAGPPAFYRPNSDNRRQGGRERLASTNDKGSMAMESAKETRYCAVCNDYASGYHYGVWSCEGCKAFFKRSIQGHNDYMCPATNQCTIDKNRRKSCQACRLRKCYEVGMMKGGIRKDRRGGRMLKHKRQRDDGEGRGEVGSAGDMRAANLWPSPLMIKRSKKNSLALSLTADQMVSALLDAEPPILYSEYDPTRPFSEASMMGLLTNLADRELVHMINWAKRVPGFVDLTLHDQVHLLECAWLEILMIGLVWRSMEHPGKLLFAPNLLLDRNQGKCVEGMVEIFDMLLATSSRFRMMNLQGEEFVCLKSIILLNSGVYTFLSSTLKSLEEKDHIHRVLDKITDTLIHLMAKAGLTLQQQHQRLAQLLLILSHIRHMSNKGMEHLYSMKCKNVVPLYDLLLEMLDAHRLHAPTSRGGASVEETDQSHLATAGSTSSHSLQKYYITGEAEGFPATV
# B1: recombinant human His-tag-PRMT2 protein (protein arginine N-methyltransferase 2) (enzyme, UniProt P55345-1 1-433, looked up)
# chain: MATSGDCPRSESQGEEPAECSEAGLLQEGVQPEEFVAIADYAATDETQLSFLRGEKILILRQTTADWWWGERAGCCGYIPANHVGKHVDEYDPEDTWQDEEYFGSYGTLKLHLEMLADQPRTTKYHSVILQNKESLTDKVILDVGCGTGIISLFCAHYARPRAVYAVEASEMAQHTGQLVLQNGFADIITVYQQKVEDVVLPEKVDVLVSEWMGTCLLFEFMIESILYARDAWLKEDGVIWPTMAALHLVPCSADKDYRSKVLFWDNAYEFNLSALKSLAVKEFFSKPKYNHILKPEDCLSEPCTILQLDMRTVQISDLETLRGELRFDIRKAGTLHGFTAWFSVHFQSLQEGQPPQVLSTGPFHPTTHWKQTLFMMDDPVPVHTGDVVTGSVVLQRNPVWRRHMSVALSWAVTSRQDPTSQKVGEKVFPIWR
# How the values were obtained:
# [1] = target: B1; assay: pull-down
# [2] = target: T1, GST-ER-α66 fusion protein; assay: pull-down
binding result [1],binding result [2],Binder
binds,,"GST-ER-α36 fusion protein (receptor, UniProt P03372-4 1-310, looked up) MAMESAKETRYCAVCNDYASGYHYGVWSCEGCKAFFKRSIQGHNDYMCPATNQCTIDKNRRKSCQACRLRKCYEVGMMKGGIRKDRRGGRMLKHKRQRDDGEGRGEVGSAGDMRAANLWPSPLMIKRSKKNSLALSLTADQMVSALLDAEPPILYSEYDPTRPFSEASMMGLLTNLADRELVHMINWAKRVPGFVDLTLHDQVHLLECAWLEILMIGLVWRSMEHPGKLLFAPNLLLDRNQGKCVEGMVEIFDMLLATSSRFRMMNLQGEEFVCLKSIILLNSGISHVEAKKRILNLHPKIFGNKWFPRV"
,binds,B1
